Results taken from patent publication US20220289837A1 (VIB VZW, published 2022).

Columns and labels:
[1] = target: T1, 2PT-NBD1 (human CFTR nucleotide-binding domain 1, residues 387-646, with S492P, A534P, I539T) (human, UniProt P13569 388-646, biotinylated for the ELISA (sites not given)); test: ITC, nanobody titrated into 2PT-NBD1 at 20 °C, one-site model
T1 construct: N-terminal His6-SUMO tag removed with Ulp1; In the T2a-T4 and T27 crystals the domain was cut by papain or subtilisin
Procedure: (§1) Isothermal titration calorimetry (ITC) was used to characterize the thermodynamic parameters of the binding (FIG. 1e and FIG. 9). […] These KD values are similar to those measured for other in vivo matured camelid heavy-chain antibodies interacting with their ligands^{[20]}. The thermodynamic parameters of the interaction of nanobodies with 2PT-NBD1 were determined based on these ITC measurements (FIG. 1e and FIG. 9).
(§2) Interactions between nanobodies and 2PT-NBD1 was carried out on NanoITC system (TA Instruments) in 0.165 ml cells at 20° C., 300 rpm syringe stirring. Proteins were extensively dialyzed in 20 mM Hepes buffer pH 7.5, 150 mM NaCl, 10% (w/v) glycerol, 10% (w/v) ethylene glycol, 2 mM ATP and 3 mM MgCl₂ for 16 h at 4° C. Heat of dilution from control experiments of each nanobody titrated into buffer was subtracted from the titration into 2PT-NBD1. Data were integrated analyzed with Origin 7.0 software (Origin Lab Corp.).

[2] = target: T1, 2PT-NBD1 (human CFTR nucleotide-binding …); test: ELISA, biotinylated 2PT-NBD1 on avidin-coated plate, nanobody titrated, anti-His detection; column head 'pEC50 (M)'
Procedure: (a) Nanobody binding to 2PT-NBD1 measured by ELISA. Biotinylated 2PT-NBD1 was immobilized on avidin-coated plates and incubated with increasing concentration of each nanobody. Binding of nanobody was followed by immunodetection of the His-tag (see Methods). Representative curve of 3 independent experiments is shown. Error bars represent the standard deviation (SD) of duplicates. Data were normalized to maximum signal for each nanobody separately. (b) Nanobody binding to F508del-2PT-NBD1 measured by ELISA as described in panel a. (c) Nanobody T4 binding to 2PT-NBD1 and F508del-2PT-NBD1. Data were normalized to maximum signal of T4 binding to 2PT-NBD1. (d) Nanobody T8 binding to 2PT-NBD1 and F508del-2PT-NBD1. Data were normalized to maximum signal of T8 binding to 2PT-NBD1.
For dose-response assays, Nunc MaxiSorp 96-well plates (ThermoScientific), were coated with 5 μg/ml NeutrAvidin Biotin-Binding protein (ThermoScientific) overnight at 4° C. and blocked 2 h at room temperature (RT) with 2% milk in phosphate-buffered saline (PBS). Each new reagent addition was preceded by three washes with 200 μl of NBD1 buffer (20 mM HEPES pH 7.5, 150 mM NaCl, and 10% (w/v) glycerol, 10% (w/v) ethylene glycol, 2 mM ATP, 3 mM MgCl₂). Then, biotinylated purified NBD1 proteins at 5 μg/ml were immobilized 30 min at RT followed by 1 h RT incubation with 100 μl various concentrations (0-20 μg/ml) of purified nanobodies. Signal detection was followed using His-tag specific antibody (Invitrogen, catalogue number: MA1-135, 1:3000 dilution) to detect the nanobodies and secondary antibody anti-mouse coupled to horse radish peroxidase (HRP) (Millipore, catalogue number: AP308P, 1:5000 dilution). 50 μl of 1-Step UltraTMB-ELISA (ThermoScientific) was used as a substrate for the peroxidase and intensity of the reaction was proportional to absorbance measured at 450 nm with SynergyMx (BioTek) after addition of 50 μl H₂SO₄ at 1M.

[3] = target: T1, 2PT-NBD1 (human CFTR nucleotide-binding …); test: isothermal titration calorimetry, nanobody titrated into 2PT-NBD1 at 20 °C, one-site model
Procedure: as §1, §2

[4] = target: T2, 2PT-F508del-CFTR expressed in BHK-21 cells (human, UniProt P13569 1-1480, I539T; S492P; A534P; F508del); test: flow cytometry on permeabilised BHK-21 cells expressing 2PT-F508del-CFTR, anti-tag antibody and Alexa Fluor 488 secondary
T2 construct: Full-length F508del CFTR stabilized by the three point mutations; permeabilized cells in flow cytometry
Source text: Graph depicts one representative of at least three independent experiments. (FIG. 4F) Average median fluorescence (fold over negative control) for each of the three representative nanobodies as illustrated in (FIG. 4D) and (FIG. 4E). Quantification of at least 3 independent experiments (±SEM). (g) Immunoblot of CFTR from solubilized BHK-21 cells pulled-down with His-tagged nanobodies, including a non-CFTR nanobody as a control. Eluted nanobodies-CFTR complexes were separated by SDS-PAGE and presence of CFTR was detected with mAb 596 antibody after immunoblotting. Arrows indicate the mature (band C) and immature (band B) forms of CFTR. Representative of at least 3 independent experiments. (FIG. 4H) Flow cytometry analysis of nanobodies T2a, T8 and G3a on BHK-21 cells expressing 2PT-F508del showing increased labelling for T2a and G3a, but not T8. (FIG. 4I) Quantification of data illustrated in […]. Average of 3 independent experiments (±SEM).
Parental BHK-21 cells (ATCC; CCL-10) and cells stably overexpressing human wt-CFTR^{[43,44,47]} or 2PT-F508del-CFTR, as described above, were permeabilized with 0.01% n-Dodecyl-β-D-Maltopyranoside β-DDM—Inalco) at least for 2 h on ice. In the meantime, cells were incubated with 50 μg/ml nanobodies and DRAQ7 (0.3 μM—Biostatus) to monitor the permeabilization state. Nanobody binding was detected by using His-tag specific antibody (Invitrogen, catalogue number MA1-135, 1 μg/ml) or Myc-tag specific antibody (Invitrogen, catalogue number 13-2500, 2 μg/ml) and then anti-mouse-Alexa Fluor 488 (Invitrogen, catalogue number A11001, 1.3 μg/ml) at least for 30 min on ice. Cells were washed one time between each step by centrifugation (200×g for 5 min at 4° C.). All incubations (100 μl) and washes (1.5 ml) were performed in PBS with 6% fetal bovine serum (FBS) and 0.01%13-DDM on ice. Cells fluorescence was measured with Gallios Flow Cytometer (Beckman Coulter). Data were analyzed with Kaluza software.

T1 sequence (P13569 388-646 V470M/S492P/A534P/I539T limits assumed): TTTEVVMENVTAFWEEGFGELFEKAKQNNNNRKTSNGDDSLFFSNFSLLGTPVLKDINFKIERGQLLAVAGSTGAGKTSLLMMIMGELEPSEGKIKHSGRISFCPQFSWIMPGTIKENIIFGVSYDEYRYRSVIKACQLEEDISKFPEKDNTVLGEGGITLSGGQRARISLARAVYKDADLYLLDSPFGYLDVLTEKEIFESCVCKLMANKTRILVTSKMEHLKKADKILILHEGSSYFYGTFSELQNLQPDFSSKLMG
T2 sequence (P13569 other isoform, or with tags, fused parts or gaps I539T/S492P/A534P/F508del): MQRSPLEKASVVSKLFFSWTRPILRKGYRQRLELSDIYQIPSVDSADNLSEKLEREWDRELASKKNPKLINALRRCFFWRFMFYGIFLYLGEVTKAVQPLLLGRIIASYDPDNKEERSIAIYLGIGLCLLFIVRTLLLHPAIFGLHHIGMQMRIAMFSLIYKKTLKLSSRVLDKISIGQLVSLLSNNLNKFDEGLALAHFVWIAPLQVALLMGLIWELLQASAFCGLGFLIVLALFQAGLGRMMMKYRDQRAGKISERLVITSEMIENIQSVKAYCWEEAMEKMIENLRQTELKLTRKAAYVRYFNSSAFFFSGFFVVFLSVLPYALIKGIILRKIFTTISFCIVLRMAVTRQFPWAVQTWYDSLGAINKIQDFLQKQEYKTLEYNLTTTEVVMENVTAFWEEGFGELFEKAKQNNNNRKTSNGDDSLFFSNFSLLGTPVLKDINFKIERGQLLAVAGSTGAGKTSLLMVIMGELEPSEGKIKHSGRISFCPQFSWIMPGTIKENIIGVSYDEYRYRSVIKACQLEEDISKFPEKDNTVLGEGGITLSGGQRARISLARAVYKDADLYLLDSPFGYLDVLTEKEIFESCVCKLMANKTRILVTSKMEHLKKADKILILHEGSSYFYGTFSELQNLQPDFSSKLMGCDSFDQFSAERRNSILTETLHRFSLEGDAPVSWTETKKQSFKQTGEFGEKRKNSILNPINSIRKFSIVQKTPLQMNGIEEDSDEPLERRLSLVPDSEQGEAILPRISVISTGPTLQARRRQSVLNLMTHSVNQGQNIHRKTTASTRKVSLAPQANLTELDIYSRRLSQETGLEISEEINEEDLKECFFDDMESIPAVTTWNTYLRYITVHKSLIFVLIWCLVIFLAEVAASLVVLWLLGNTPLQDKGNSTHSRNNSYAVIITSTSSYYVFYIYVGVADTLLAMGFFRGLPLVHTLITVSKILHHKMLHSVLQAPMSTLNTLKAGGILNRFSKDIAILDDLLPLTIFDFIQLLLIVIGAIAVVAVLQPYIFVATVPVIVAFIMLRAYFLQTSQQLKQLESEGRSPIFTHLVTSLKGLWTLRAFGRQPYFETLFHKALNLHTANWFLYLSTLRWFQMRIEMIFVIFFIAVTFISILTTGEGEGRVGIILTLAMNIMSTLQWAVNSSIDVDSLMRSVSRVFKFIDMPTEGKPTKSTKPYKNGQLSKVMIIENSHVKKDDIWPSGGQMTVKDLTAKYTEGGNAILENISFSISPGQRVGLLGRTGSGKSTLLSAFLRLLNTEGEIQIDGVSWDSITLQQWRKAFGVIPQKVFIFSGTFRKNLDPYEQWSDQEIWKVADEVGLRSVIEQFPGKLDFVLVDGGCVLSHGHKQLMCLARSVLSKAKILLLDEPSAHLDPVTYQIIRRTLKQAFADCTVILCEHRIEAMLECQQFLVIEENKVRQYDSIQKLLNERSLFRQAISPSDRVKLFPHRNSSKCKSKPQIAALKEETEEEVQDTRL

B1: Nanobody T2a (VHH, not shown: small tags and cut ends)
VHH: QVQLQESGGGLVQAGGSLRLSCAASGSIFRIDAMGWYRQAPGKQRELVAHSTSGGSTDYADSVKGRFTISRDNAKNTVYLQMNSLKPEDTAVYYCNADVRTRWYASNNYWGQGTQVTVSS
notes: Llama nanobody; also called Nb T2a; T2a Nb
ΔG [1]: -9.7 kcal/mol
ΔH [1]: -13.8 kcal/mol
pEC50 [2]: 7.9
Kd [3]: 54 nM
binding result [4]: binds

B2: Nanobody T8 (VHH, not shown: small tags and cut ends)
VHH: QVQLQESGGGLVQPGGSLRLSCAASGSTSSINAMGWYRQAPGKQREPVAISSSGGDTRYAEPVKGRFTISRDNAQNKVYLQMNSLKPEDTAVYYCWLNWGRTSVNSWGQGTQVTVSS
notes: Llama nanobody; also called Nb T8; T8 Nb
ΔG [1]: -9.94 kcal/mol
ΔH [1]: -15.5 kcal/mol
pEC50 [2]: 7.9
Kd [3]: 39 nM
binding result [4]: no binding
